US20240200091A1, “USE OF PROTOPORPHYRINOGEN OXIDASE” (BEIJING DABEINONG BIOTECHNOLOGY CO., LTD., priority 2021, published 2024)

Tests used:
Type in all cases: in vivo
[1] = system: Arabidopsis thaliana T1 plants; experiment: oxyfluorfen tolerance of transgenic Arabidopsis thaliana T1 plants (spray, grade of pesticide damage); settings: for The grade of pesticide damage/plant: grade 0 / The grade of pesticide damage/plant: grade 1 / The grade of pesticide damage/plant: grade 2 / The grade of pesticide damage/plant: grade 3: 7 DAT, number of plants of 24 per genotype, grades
Summary of the method: (§1)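 Glufosinate-selected T1 lines expressing PPO variants, with control-vector and wild-type plants (24 per genotype), were sprayed 18 days after sowing with saflufenacil 25 or 100, sulfentrazone 450 or 900, flumioxazin 60 or 240, or oxyfluorfen 180 or 720 g ai/ha, or water. Injured/total leaf area was graded 0–3 at 7 DAT.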

[2] = system: Arabidopsis thaliana T1 plants; experiment: sulfentrazone tolerance of transgenic Arabidopsis thaliana T1 plants (spray, grade of pesticide damage); settings: for The grade of pesticide: grade 0 / The grade of pesticide: grade 1 / The grade of pesticide: grade 2 / The grade of pesticide: grade 3: 7 DAT, number of plants of 24 per genotype, grades
Summary of the method: as §1

[3] = system: transgenic soybean plants; experiment: oxyfluorfen tolerance of transgenic soybean plants (spray, grade of pesticide damage); settings: for The grade of pesticide damage/plant: grade 0 / The grade of pesticide damage/plant: grade 1 / The grade of pesticide damage/plant: grade 2 / The grade of pesticide damage/plant: grade 3: 7 DAT, number of plants of 16 per genotype, grades
[4] = system: Arabidopsis thaliana T1 plants; experiment: flumioxazin tolerance of transgenic Arabidopsis thaliana T1 plants (spray, grade of pesticide damage); settings: for The grade of pesticide damage/plant: grade 0 / The grade of pesticide damage/plant: grade 1 / The grade of pesticide damage/plant: grade 2 / The grade of pesticide damage/plant: grade 3: 7 DAT, number of plants of 24 per genotype, grades
Summary of the method: as §1

[5] = system: transgenic soybean plants; experiment: saflufenacil tolerance of transgenic soybean plants (spray, grade of pesticide damage); settings: for The grade of pesticide damage/plant: grade 0 / The grade of pesticide damage/plant: grade 1 / The grade of pesticide damage/plant: grade 2 / The grade of pesticide damage/plant: grade 3: 7 DAT, number of plants of 16 per genotype, grades
[6] = system: Arabidopsis thaliana T1 plants; experiment: saflufenacil tolerance of transgenic Arabidopsis thaliana T1 plants (spray, grade of pesticide damage); settings: for The grade of pesticide damage/plant: grade 0 / The grade of pesticide damage/plant: grade 1 / The grade of pesticide damage/plant: grade 2 / The grade of pesticide damage/plant: grade 3: 7 DAT, number of plants of 24 per genotype, grades
Summary of the method: as §1

[7] = system: transgenic soybean plants; experiment: flumioxazin tolerance of transgenic soybean plants (spray, grade of pesticide damage); settings: for The grade of pesticide damage/plant: grade 0 / The grade of pesticide damage/plant: grade 1 / The grade of pesticide damage/plant: grade 2 / The grade of pesticide damage/plant: grade 3: 7 DAT, number of plants of 16 per genotype, grades

B1: PPO-APA: nucleotide sequence encoding Arsenophonus protoporphyrinogen oxidase PPO-AP (SEQ ID NO:65), Arabidopsis thaliana/soybean common codon usage bias (nucleic acid)
DNA: ATGTCTTACCTGCTGTTATATTCAGGGAAAAATGGACAAACCAAGAAGATCATTCTGAAAATAACAGAGTATCTTCGAAAAGAAGGAAAGCAATGTGATGTTAGAGATTTGAACATGGATAAGAACTTCAACCTTTCTGTATATCAGAAGGTGCTCGTTGGTGCCTCGATAAGATATGGTCATTTCAATCCCGCAGTCCTCAATTTTGCTCAGAATCACCAAAAGGAGTTAAACACTATTCAATCAGCTTTCTTTGGCGTGAATTTGATGGCTCGTAAACAAGGAAAAGATACTCCTGAGACAAATGTGTATGTGAGGAAGTTTCTTGCCAAAATTCCATGGCAACCAACAATCACCAATGTTTTCAGTGGAGCGTTGAGGTATCCTCAGTACAAATGGCTTGACCGGATAATGATTCAGTTTATCATGAAGATTACTGGTGGTGAAACAAACAAAAACAAGGAAGTTGAATATACTGATTGGGAAAAGGTAGAGTACTTTGCAAGAGAGTTTAATGCTTTGAAATGA
modifications: The nucleotide sequence of PPO-APA
In the case of B1, the “The grade of pesticide damage/plant: grade 0” value ([1]; oxyfluorfen 180 g ai/ha (1×)) is reported as 0 plant, the “The grade of pesticide damage/plant: grade 1” value ([1]; oxyfluorfen 180 g ai/ha (1×)) is reported as 0 plant and the “The grade of pesticide damage/plant: grade 2” value ([1]; oxyfluorfen 180 g ai/ha (1×)) is reported as 0 plant. For the same molecule, the “The grade of pesticide damage/plant: grade 3” value ([1]; oxyfluorfen 180 g ai/ha (1×)) was 24 plant, the “The grade of pesticide damage/plant: grade 0” value ([1]; oxyfluorfen 720 g ai/ha (4×)) was 0 plant and the “The grade of pesticide damage/plant: grade 1” value ([1]; oxyfluorfen 720 g ai/ha (4×)) was 0 plant. The “The grade of pesticide damage/plant: grade 2” value ([1]; oxyfluorfen 720 g ai/ha (4×)) was 0 plant, the “The grade of pesticide damage/plant: grade 3” value ([1]; oxyfluorfen 720 g ai/ha (4×)) was 24 plant and the tolerance to oxyfluorfen ([1]; oxyfluorfen at different concentrations (180 and 720 g ai/ha), compared with the control vector and CK) was “basically no tolerance”. The “The grade of pesticide: grade 0” value ([2]; sulfentrazone 450 g ai/ha (1×)) was 0, the “The grade of pesticide: grade 1” value ([2]; sulfentrazone 450 g ai/ha (1×)) was 0 and the “The grade of pesticide: grade 2” value ([2]; sulfentrazone 450 g ai/ha (1×)) was 0. The “The grade of pesticide: grade 3” value ([2]; sulfentrazone 450 g ai/ha (1×)) was 24, the “The grade of pesticide: grade 0” value ([2]; sulfentrazone 900 g ai/ha (2×)) was 0 and the “The grade of pesticide: grade 1” value ([2]; sulfentrazone 900 g ai/ha (2×)) was 0. For the same molecule, the “The grade of pesticide: grade 2” value ([2]; sulfentrazone 900 g ai/ha (2×)) was 0, the “The grade of pesticide: grade 3” value ([2]; sulfentrazone 900 g ai/ha (2×)) was 24 and the tolerance to sulfentrazone ([2]; sulfentrazone at different concentrations (450 and 900 g ai/ha)) was “no tolerance”. The “The grade of pesticide damage/plant: grade 0” value ([3]; oxyfluorfen 360 g ai/ha (2×)) was 0 plant, the “The grade of pesticide damage/plant: grade 1” value ([3]; oxyfluorfen 360 g ai/ha (2×)) was 0 plant and the “The grade of pesticide damage/plant: grade 2” value ([3]; oxyfluorfen 360 g ai/ha (2×)) was 8 plant. For the same molecule, the “The grade of pesticide damage/plant: grade 3” value ([3]; oxyfluorfen 360 g ai/ha (2×)) was 8 plant, the “The grade of pesticide damage/plant: grade 0” value ([3]; oxyfluorfen 720 g ai/ha (4×)) was 0 plant and the “The grade of pesticide damage/plant: grade 1” value ([3]; oxyfluorfen 720 g ai/ha (4×)) was 0 plant. For the same molecule, the “The grade of pesticide damage/plant: grade 2” value ([3]; oxyfluorfen 720 g ai/ha (4×)) was 0 plant, the “The grade of pesticide damage/plant: grade 3” value ([3]; oxyfluorfen 720 g ai/ha (4×)) was 16 plant and the tolerance to oxyfluorfen ([3]; soybean, oxyfluorfen at four-fold field concentration (720 g ai/ha)) was “no tolerance”. The “The grade of pesticide damage/plant: grade 0” value ([4]; flumioxazin 60 g ai/ha (1×)) was 0 plant, the “The grade of pesticide damage/plant: grade 1” value ([4]; flumioxazin 60 g ai/ha (1×)) was 0 plant and the “The grade of pesticide damage/plant: grade 2” value ([4]; flumioxazin 60 g ai/ha (1×)) was 0 plant. The “The grade of pesticide damage/plant: grade 3” value ([4]; flumioxazin 60 g ai/ha (1×)) was 24 plant, the “The grade of pesticide damage/plant: grade 0” value ([4]; flumioxazin 240 g ai/ha (4×)) was 0 plant and the “The grade of pesticide damage/plant: grade 1” value ([4]; flumioxazin 240 g ai/ha (4×)) was 0 plant. The “The grade of pesticide damage/plant: grade 2” value ([4]; flumioxazin 240 g ai/ha (4×)) was 0 plant, the “The grade of pesticide damage/plant: grade 3” value ([4]; flumioxazin 240 g ai/ha (4×)) was 24 plant and the tolerance to flumioxazin ([4]; flumioxazin at different concentrations (60 and 240 g ai/ha)) was “basically no tolerance”. For the same molecule, the “The grade of pesticide damage/plant: grade 0” value ([5]; saflufenacil 50 g ai/ha (2×)) was 0 plant, the “The grade of pesticide damage/plant: grade 1” value ([5]; saflufenacil 50 g ai/ha (2×)) was 0 plant and the “The grade of pesticide damage/plant: grade 2” value ([5]; saflufenacil 50 g ai/ha (2×)) was 8 plant. For the same molecule, the “The grade of pesticide damage/plant: grade 3” value ([5]; saflufenacil 50 g ai/ha (2×)) was 8 plant, the “The grade of pesticide damage/plant: grade 0” value ([5]; saflufenacil 100 g ai/ha (4×)) was 0 plant and the “The grade of pesticide damage/plant: grade 1” value ([5]; saflufenacil 100 g ai/ha (4×)) was 0 plant. The “The grade of pesticide damage/plant: grade 2” value ([5]; saflufenacil 100 g ai/ha (4×)) was 0 plant, the “The grade of pesticide damage/plant: grade 3” value ([5]; saflufenacil 100 g ai/ha (4×)) was 16 plant and the tolerance to saflufenacil ([5]; soybean, saflufenacil, compared with the control vector and CK) was “basically no tolerance”. The “The grade of pesticide damage/plant: grade 0” value ([6]; saflufenacil 25 g ai/ha (1×)) was 0 plant, the “The grade of pesticide damage/plant: grade 1” value ([6]; saflufenacil 25 g ai/ha (1×)) was 0 plant and the “The grade of pesticide damage/plant: grade 2” value ([6]; saflufenacil 25 g ai/ha (1×)) was 0 plant. The “The grade of pesticide damage/plant: grade 3” value ([6]; saflufenacil 25 g ai/ha (1×)) was 24 plant, the “The grade of pesticide damage/plant: grade 0” value ([6]; saflufenacil 100 g ai/ha (4×)) was 0 plant and the “The grade of pesticide damage/plant: grade 1” value ([6]; saflufenacil 100 g ai/ha (4×)) was 0 plant. For the same molecule, the “The grade of pesticide damage/plant: grade 2” value ([6]; saflufenacil 100 g ai/ha (4×)) was 0 plant, the “The grade of pesticide damage/plant: grade 3” value ([6]; saflufenacil 100 g ai/ha (4×)) was 24 plant and the tolerance to saflufenacil ([6]; saflufenacil at four-fold field concentration (100 g ai/ha)) was “no tolerance”. The tolerance to saflufenacil ([6]; saflufenacil at one-fold field concentration (25 g ai/ha)) was “no tolerance”, the “The grade of pesticide damage/plant: grade 0” value ([7]; flumioxazin 120 g ai/ha (2×)) was 0 plant and the “The grade of pesticide damage/plant: grade 1” value ([7]; flumioxazin 120 g ai/ha (2×)) was 0 plant. For the same molecule, the “The grade of pesticide damage/plant: grade 2” value ([7]; flumioxazin 120 g ai/ha (2×)) was 0 plant, the “The grade of pesticide damage/plant: grade 3” value ([7]; flumioxazin 120 g ai/ha (2×)) was 16 plant and the “The grade of pesticide damage/plant: grade 0” value ([7]; flumioxazin 240 g ai/ha (4×)) was 0 plant. The “The grade of pesticide damage/plant: grade 1” value ([7]; flumioxazin 240 g ai/ha (4×)) was 0 plant, the “The grade of pesticide damage/plant: grade 2” value ([7]; flumioxazin 240 g ai/ha (4×)) was 0 plant and the “The grade of pesticide damage/plant: grade 3” value ([7]; flumioxazin 240 g ai/ha (4×)) was 16 plant. The tolerance to flumioxazin ([7]; soybean, flumioxazin at different concentrations (120 and 240 g ai/ha)) was “no flumioxazin tolerance”.
